Measurements from patent US20260132208A1 (DOMAIN THERAPEUTICS, published 2026).
Several values for one entry are separate records, joined by “and”; a condition that tells them apart may be missing. Equal entries are not always repeated.

Columns and labels:
human CCR8 [1] = biological target: T1, human CCR8 (human, UniProt P51685 1-355); test: cell-based or functional assay
human CCR8 [2] = biological target: T1, human CCR8; test: cell-based or functional assay; remark: listed apart in the source
pm3 = biological target: T2, pm3 (Y17 sulfated; Y15 and Y16 not sulfated); test: ELISA on coated peptide [cont.]
T2 construct: also called sulfated CCR8 N-terminal peptide pm3
In short: (§1)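 Steps: peptide coating (500 ng/ml, carbonate/bicarbonate); anti-CCR8 mAb added at 1 μg/mL and diluted 1/10; room-temperature incubation of 90 min; washes to remove unbound antibody; 15 min TMB; OD measurement.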

pm8 = biological target: T3, pm8 (Y15, Y16 and Y17 sulfated); test: ELISA on coated peptide [cont.]
T3 construct: also called sulfated CCR8 N-terminal peptide pm8
In short: as §1

pm5 = biological target: T4, pm5 (Y15 and Y17 sulfated; Y16 not sulfated); test: ELISA on coated peptide [cont.]
T4 construct: also called sulfated CCR8 N-terminal peptide pm5
In short: as §1

pm6 = biological target: T5, pm6 (Y16 and Y17 sulfated; Y15 not sulfated); test: ELISA on coated peptide [cont.]
T5 construct: also called sulfated CCR8 N-terminal peptide pm6
In short: as §1

human CCR8 [3] = biological target: T1, human CCR8; test: flow cytometry competition on hCCR8 transfected CHO cells; blocked ligand hCCL1-AF647 [cont.]
Procedure: The hCCR8 transfected CHO cell line was dispatched at a density of 1.105 per well in a 96-well plate. Cells were incubated for 30 min at 4° C. with or without anti-CCR8 mAb tested at 10 μg/mL then diluted at 1/3. Unbound antibodies were washed away with PBS (Gibco, Villebon-sur-yvette, France) supplemented by 2% Fetal Bovine Serum (Invitrogen by Thermofisher Scientific, Illkirch-Graffenstaden, France) and 2 mM EDTA. […] After washing unbound ligands, CCL1 bound detection is quantified on a MacsQuant16 (Miltenyi, Gladbach, Germany) (R1 channel, 5 000 events per acquisition).
For IC₅₀ determination, a concentration response curve is performed using 8 concentrations of mAb. Curves are fitted and IC₅₀ of CCL1 binding blocking activity is calculated using the sigmoidal dose-response (variable slope) model on GraphPad Prism 9 (GraphPad Software, San Diego, CA, USA).

human CCR8 [4] = biological target: T1, human CCR8; test: flow cytometry, inhibition of hCCL1-AF647 (10 nM) binding to hCCR8-CHO cells
In short: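 hCCR8-transfected CHO cells preincubated 30 min at 4 °C with anti-CCR8 mAb (8 concentrations, top 10 μg/mL, 1/3 dilutions), washed, then exposed to labelled CCL1. Bound CCL1 quantified by flow cytometry; IC₅₀ of binding blockade from sigmoidal variable-slope fit.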

human CCR8 [5] = biological target: T1, human CCR8; test: cell-based or functional assay; remark: listed apart in the source
human CCR8 [6] = biological target: T1, human CCR8; test: flow cytometry, hCCR8-transfected CHO-K1 cells
In short: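 Antibody incubation ran 30 min at 4° C, followed by fluorescent anti-mouse or anti-human IgG secondary for 30 min at 4° C. Isotype-matched mAbs served as nonspecific-binding controls.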

T2 sequence (peptide, as listed by the source): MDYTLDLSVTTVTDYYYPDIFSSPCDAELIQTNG
T3 sequence (peptide, as listed by the source): as above
T4 sequence (peptide, as listed by the source): as above
T5 sequence (peptide, as listed by the source): as above

extrapolated top plateau of hCCL1 curve with 5 µg/mL mAb, protocol #3 (human CCR8 [1]): 533000 % of hCCL1 (100 nM)
IC50 of CCL1-induced hCCR8 Gi2 signaling (BRET, HEK-293) (human CCR8 [2]): 0.015 µg/mL and 0.1 nM
binding result (pm3): binds
binding result (pm8): binds
binding result (pm5): binds
binding result (pm6): binds
IC50 (read off the curve) (human CCR8 [3]): ~0.9 µg/mL
IC50 (human CCR8 [4]): ~0.91 µg/mL and 6.09 nM
residual hCCL1 (100 nM) Gi2 response, protocol #2, mAb 0.08 µg/mL (human CCR8 [5]): 88%
residual hCCL1 (100 nM) Gi2 response, protocol #2, mAb 0.4 µg/mL (human CCR8 [5]): 57%
residual hCCL1 (100 nM) Gi2 response, protocol #2, mAb 10 µg/mL (human CCR8 [5]): 46%
residual hCCL1 (100 nM) Gi2 response, protocol #3, mAb 0.05 µg/mL (human CCR8 [5]): 73%
residual hCCL1 (100 nM) Gi2 response, protocol #3, mAb 0.5 µg/mL (human CCR8 [5]): 36%
residual hCCL1 (100 nM) Gi2 response, protocol #3, mAb 5 µg/mL (human CCR8 [5]): 36%
% positive cells (human CCR8 [6]): 81.8%
MFI fold change to isotype ctrl (human CCR8 [6]): 16.2 fold
B1: anti-CCR8 mAb 1-9 (antibody, V domains shown)
VH: EVQLVESGGGLVQPKGSLKLSCAASGFTFNAYAMNWVRQAPGKGLEWLARIRSKSNNYATYYADSVKDRFTISRDDSQSMFYLQMNNLKSEDTAMYYCVRGREAYYRYDGGYYAMDYWGQGTSVTVSS
VL: EIVMTQAALSAPVTPGESVSMSCRSSKSLLHSNGNTYLYWFLQRPGQSPQLLIYRMSNLASGVPDRFSGSGSGTAFTLRISRVEAEDVGVYYCMQHLEYPFTFGSGTKLEIK
notes: Murine hybridoma mAb
